The results in this text go back to patent publication US20070027086A1.

pKi: −log10 of the molar value. Some results are limits rather than exact numbers.

The target of assay [1] is human MC5-receptor (human) (UniProt P33032). Description: ratio of Ki values, competition with [^125I]NDP-MSH on COS-1 cells expressing human MC receptors.
Assay [2] deals with human MC4-receptor (human) (UniProt P32245). The assay is described as above.
Assay [3] has the same target. As to the kind of experiment: competition with [^125I]NDP-MSH on COS cells expressing human MC4 receptor; Ki by Cheng-Prusoff.
Assay [4] addresses human MC5-receptor (human) (UniProt P33032). As to the kind of experiment: competition with [^125I]NDP-MSH on COS cells expressing human MC5 receptor; Ki by Cheng-Prusoff.

Sequence of human MC5-receptor (human) (P33032 whole entry): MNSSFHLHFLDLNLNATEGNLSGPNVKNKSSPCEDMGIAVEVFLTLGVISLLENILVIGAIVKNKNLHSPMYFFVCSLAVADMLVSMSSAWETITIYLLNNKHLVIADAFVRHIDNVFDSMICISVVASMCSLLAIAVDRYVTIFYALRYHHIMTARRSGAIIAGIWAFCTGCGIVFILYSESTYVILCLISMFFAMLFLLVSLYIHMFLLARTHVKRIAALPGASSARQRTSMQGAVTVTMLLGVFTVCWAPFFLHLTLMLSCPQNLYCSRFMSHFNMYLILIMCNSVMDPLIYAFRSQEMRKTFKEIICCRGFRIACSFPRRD
Sequence of human MC4-receptor (human) (P32245 whole entry): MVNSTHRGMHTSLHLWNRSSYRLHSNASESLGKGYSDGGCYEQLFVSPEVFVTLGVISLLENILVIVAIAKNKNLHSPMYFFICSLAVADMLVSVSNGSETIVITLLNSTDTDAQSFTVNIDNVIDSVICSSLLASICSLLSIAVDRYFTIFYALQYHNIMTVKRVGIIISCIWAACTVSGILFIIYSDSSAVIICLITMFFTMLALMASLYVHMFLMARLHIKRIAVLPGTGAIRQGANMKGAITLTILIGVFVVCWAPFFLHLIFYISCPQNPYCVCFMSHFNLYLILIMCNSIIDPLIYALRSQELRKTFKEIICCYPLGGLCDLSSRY

The pKi is the negative decadic logarithm of the Ki, by convention in mol/L. For the substance “MS05 (Ser-Ser-Ile-Ile-Ser-His-Phe-Arg-Trp-Gly-Lys-Pro-Val-NH2) (peptide)”, the fold lower affinity than for the MC1-receptor in assay [1] and in assay [2] was above 65000 fold each time. Moreover, the pKi in assay [3] and in assay [4] was below 4.30 in each case.
